test: soluble on expression in E. coli; label from the status in PepcDB or PDB records

Soluble on expression in E. coli, not soluble:
MGSDKIHHHHHHMTTHTKPGLRPANPNFSSGPCAKRPGWSVEALKNAALGRSHRAKIGKTKLEQAIELTREILQVPADHRIGIVPASDTGAVEMALWSLLGERGVDMVAWESFGSGWVTDVVKQLKLPDVRKLEAGYGELPDLAKIDFDRDVVFTWNGTTSGVRVPNGDFIPADRKGLTICDATSAAFAQRLDFEKLDVVTFSWQKVLGGEGAHGMLILSPRAVARLESYKPAWPLPKIFRLTSGGKLIEGIFKGETINTPSMLCVEDYLDALHWAKSIGGLDVLVARADANAAVLDGFVDKSSWLGHLAVQPATRSNTSVCLSFTDPDVAALDADGQATFAKGLVSALDKEGVAYDIGSYRDAPPGLRIWCGATVETSDLETLLPWLDWAFAAQKASLKAAA
MGSDKIHHHHHHMTTNNASPEAGHIMQTRTVDLDGQVLRVGIRPGSGDLPPLLMFNGIGANLELVEPFVDALPDVEVIIFDIPGAGGSPAPLFPYRFSNLCVMADKLLSHLGYAGPVDTLGVSWGGALAQEFARLYPQRCRRLVLAATSPGVLMVPGSPSVLTKMIGIRRYTDAEYLRRVGGDIYGGAFRDDPSLLDVHGGHMRPPRGRGYLYQLLAAWGWSSLPWLRALKQRTLVLHGSDDPIVPLINAKILSGCIPDSALHVFHDDGHLFLLTAARESARVVGEFLREGR
MGSDKIHHHHHHMTTPFKRIHLIVMDSVGIGEGPDAAAFNDEGSHTLKHTLEGFKQKLPHLEQLGLGNIAPLPVVSKVTHPGAFYTKLSEASVGKDTMTGHWEIMGLNIMQPFKVYPNGFPAELVKEIESMTGRKVVANRPASGTQIIDEWGEHQMKTGDLIVYTSADPVLQIAAHEDVIPLEELYEICEKVRELTKDPKYLIGRIIARPYVGEPGNFTRTSNRHDYALKPFGRTVMNSLKDSGYDVIAIGKINDIYDGEGVTEAIRTKNNMDGMDQLIEVVKKDFEGISFLNLVDFDALYGHRRDKEGYAQAIKDFDLRLPELMNHLREDDLVIITADHGNDPIAKGTDHTREYIPLLMFSPKIKDYHELSQDTTFSSIGVTIADNFNVELPKYGKSYLKEMGVEHQ
MGSDKIHHHHHHMTTRILICDDSALARKQMAKALPPGLADDILFAGDGKEALTILRDQKAELLFLDLNMPELDGYQVLEHIRSEDLPVLTIVVSGDIQPEARERVRKLGAIDFIKKPTDTGVVSRLLKEYGFYRPSELEDTALNDASLHSREAAAPEISVSLSDYLQEISNVAMGRSSDLLARLLKVFVKQPIPKVAFIANSELHMAISAAQRAENYSAVCQGFTGAGIAGEALLLFEDASFREMAELLHYDVLEGESVNVEVLMDMSSILFGAFINGIGDQLDLKLGLGHPTVLGQHRPVNELLDHHSKREEQLLCIEISYALENRDIRCNMLILLTEDSIPFLEKRLAYLVD
MGSDKIHHHHHHMTTSAVSIPMPSIPRRRRSPEDVLAAAPVPGPKKVLLAAPRGYCAGVDRAVIAVEKALEHYGPPVYVRKQIVHNVHVVSSLEEKGAIFVDETDEVPEGALVIFSAHGVSPAVVQSAEDRGLRTIDATCPLVTKVHREAVRFAKDDFDILLIGHDGHEEVEGTAGEAPEHIQIINGPHEVDKVTVRDPEKVIWLSQTTLSVDETMETVRLLKERFPTLQDPPSDDICYATTNRQVAIKKISPQADLVIVVGSANSSNSVRLVEVALEYGAKASYRVDFANEVDEAWFEGVATVGVTSGASVPEVLVKDVLRLLADYGYGTVEEVVTAEEDLLFSLPKELRATLKKSGDVTRALGGRGARA
MGSDKIHHHHHHMTTSTNERTTRAELQDAPRVARLHPQPDYRISVGGRDLSRLFAPRLVSLSISESRSDEADTIDIVLDDSKNDLDIPKRGATIKASIGWAGEPLVDKGSFVVNEVEHSGAPDIITIRARSAAMTSGMQERREKSWHRQTIGSIVHAIAGRYSLSPTVGDALAKILIAHIDQTHESDMSFLTRLAKRYDAVMNVKDLRLLFMPIGTGQTATGKKLDVLELTRASGDSHRYHVSERENYAAVRAHYHSTGRAKRKSVIVGGENNKNVKVLPEDYATEAEARAAAQAEFKRMQRSQATMSYTLARGRAELFPEMPVTVSGFKPEIDETPWLVKKATHTIGDVGFTTALELEMRDDPTTERHRSHFQGSR
MGSDKIHHHHHHMTVAIDRTKGDQSTPGNIIRGEGYALIRNSEATPDPDKVIHIPCADSFSVIVQLRDFNSHRLWNGNKLVFDGGHPRKSISIAYLGDEIKCQHRTTYDNVRFMLPRASIKEFLYEEGQRASAEPERIIGVDDPVVYHLALALLPSFARAGERNELFIEQVMLALLTHVQDRFASTQVPVCTGKGLAPWQLRRAKELIAGHLAEGVSVARLAEECGLSRSYFTKAFKCSTGVSPHEWLMRMRVDRAKELMLGSDEPLSQIGVACGFSDQPHFSRIFLRLAGASPSTWRRVKRQRTDAAL
MGSDKIHHHHHHMTVCVWCQRPLKTSLTLAQFWRWGPVTPPDICVPCQGRLSPISGQHCPQCGRQQTTCQLCQDCQRWDQPLVNRALYCYDAEMKAYMQQYKFQGDYALQRVLQRALATALTQLTYDILVPIPIAQSTWQSRGFNQVTGWLTGQAYYQVLQVIDQDKATPQSAKNRAQRFLLTPQPFTLAPQAKDLCHGQRVLLLDDVYTTGRTLRHAATQINLTGAKAVTSLTLAR
MGSDKIHHHHHHMTVQSSDVIAPPAPRTLPDTGLSLVMLRDILLKTMFRMNLELVSQIAPVICLPAPLAQELVDLARSQRLVEATGTLHATSGNEMGYQLTDQGKARALDALSQSEYYGAMPVPLDRYRLQVERQSVRHIKLTRAQLTAAMGHLILPDELLDHLGPAVTSGRSILMYGPPGNGKSSISNGIRDALGDRIYVPRALEYSGQVITVYDPIVHRSAESAVDDPTSLRRTSNRFDNRYVWCERPTVITGGELTLDMLDLTYNPVARTYQAPLQLKATGGIFIVDDLGRQAEPPQKLVNRWIVPLEENRDILALQSGEKFTVPFDTLVIFSTNFHPNEIFDGAALRRIFFKIKVDGPSQENFLKIFAMVAKKRKMPLDETALVHLMKAKFPTIDNRYANYMPVYLIDQMISVCDFEGLPYQMTPALIDRAWSNMFVRDEVIAK
MGSDKIHHHHHHMVAIDLPYDKRTITAQIDDENYAGKLVSQAATYHNKLSEQETVEKSLDNPIGSDKLEELARGKHNIVIISSDHTRPVPSHIITPILLRRLRSVAPDARIRILVATGFHRPSTHEELVNKYGEDIVNNEEIVMHVSTDDSSMVKIGQLPSGGDCIINKVAAEADLLISEGFIESHFFAGFSGGRKSVLPGIASYKTIMANHSGEFINSPKARTGNLMHNSIHKDMVYAARTAKLAFIINVVLDEDKKIIGSFAGDMEAAHKVGCDFVKELSSVPAIDCDIAISTNGGYPLDQNIYQAVKGMTAAEATNKEGGTIIMVAGARDGHGGEGFYHNLADVDDPKEFLDQAINTPRLKTIPDQWTAQIFARILVHHHVIFVSDLVDPDLITNMHMELAKTLDEAMEKAYAREGQAAKVTVIPDGLGVIVK
MGSDKIHHHHHHMVDFKEQQQRYWQLLHQPESLFLLHRANDVEHFIALMTDFLAWPELSLEHMLAFIALQQDSFIPDLDRFSQAWFPCRYHSQHKTVSWVPALHKLSKPFLEDDISDARRCLLASFIQPSTLLEPLLSQRESLPIVNPSLMIFHWSRCGSTLVSSSFALLETCRVLSESMLCSDVMHDDHWPLALKPQLVDLCLRLQGRLRLGERKLVIKWNAWDLACWPMLLELYPKSRVLCLIRNPKDIIDSHQRVAGRHMAGGQSLLPTELQTQQMENTDTEPSLDEFRTTVLQYLAQLSLALHQSSRVILLDYHQLTDFKPTTFSTILGWALSEGEIERWQHHWRFDAKQQGQLFTPVVPNEPVPIRECQNPSWQQLLITYNQLLQRLYWDKKA
MGSDKIHHHHHHMVDTNHKIAFCIDSDGCAMDTMTYKHQLFFGPIAADIFGISEQERTSFLKEWDRVNLYSRTRGVNRFVGLVMGLEFAGVEHIDKLKEWVETTDSLSNNSLELALANDFSRDLEKALEWSNEVNRQIKNYEGDSLAFSGVLESLERLSQFGNVYVVSSANKEAVWQEWEEQGLLKYVDDIYCQDRGKKEDVIATLIASGYCRETILMVGDSLGDLAAAEQNGIAFYPVLVGKEVKSWEILREDIGEAFAKGQFEQQRQKESINTFWANLDN
MGSDKIHHHHHHMVENYNFSGVPMRLDDLTYMNPWWEGREDYHVRRWKEQRLHWKPGWLEKLSLKPFSLNFVLGPRQVGKTTGIKLLIQELLKDNPPESILYINVKVLPGHRELLNLLREFQELKEKEGVKTGYIFLDEVTSLEGWWRGVKPLIDAGLLKNDVVTVTGSSSLGVRRDIELFPGRRGSGKTIEVMPLSFPEYVEVMGLKKPELYREKVLKLFEDYLTTGGFPTSINGLPMEDLLGAYIGEIVRFGKSLEIAKETLSALIRSAPSATSFRALAGITSGYSYKVVQDYIELFTELYVLGIAYLKQGNQVLYKREKKFFFRDPLLARLFALWSGTELKEDALYEWVVQEHLYRRFGEVYYYRNSYEIDAIAGDLKVEVKAGKTHRRYPKNVRVLEKEDVPFFLLELTHESTSRF
MGSDKIHHHHHHMVLLDYHMHSLNSTDAHDEISALCAKAIARGLQEIAVTDHFEPSAGHEEYSEYDGRKYFTEIAEARRRFAGKLSIKSGVELGQPHLFPKYSLQLLEEYPYDYVLGSAHRMPNNVDFGEVRYTPENLAAYCASYLTELKALAQWGHYDCLGHLDLVKRYAAKYRLRANLMDYQEQLAEILRIVIDKGKGIEVNTSGLRQSSQECLPDLDIIRLYKELGGEIITVGSDAHWAEDVGKGIQEGLERLKKAGFKYVSVYTNRQPAMIKIGDKSALFTRGGLSA
MGSDKIHHHHHHMVLPGFFVPVKGWCPLPGVVIFTDVPAVVPATVSAHEAACPAGSPVLPRVSGLPPLRDGSRGRDCPMGASHVWDLPFSPPAGAALPCRRSRSHGLAPAPRVYGMLLVRAWRCSMDRDTVAGLMADALLERRFRHNDGAHPALAALRELAVNQGTDAGRRMVADDPHEVGSPPLSPIDPVELLQHDGALPSLPTVYVELRQRLADPDCSVREAAEVITRDAGLTAWLLRVVNSASYGLSGRVDTVTQAVAVVGMRQLETMVASGMLQSLMRSVPRGLVDMERLWRHSLAVGGAAREIWRLMGRPDPERLFVAGVLHDVGYLAFVMMAPQKAAQLVPRLRASHLPGHLAERELLGFDHAKLGGMLLHKWNMPVPLVMSVLRHHEPESVPSMPEPSVIHLADIVARAMGYGPDAESAVPPLSASAWEASGLTPQHLEAVANAMTAMVDDLGTAVMCTTV
MGSDKIHHHHHHMVLSGSPYERGFQHGNRFADLISQALDRRLASLSAADLSQAHKRASDVLATIDVMAPHVGTELRGIADGAGREVSGIVLRSSFELLASPTATGCSGLAVQTRDGALIAQNWDGPLGSDVEQALFIHVGTSGFEFATVAAVGALGWVGFNRAGFGFVNNDLVLKSRCDGIPSQIVRRVFLGCPDVNAAVEAAKSLPHMAGRAYLFGDASNKIASIEVSARHGVSVCRSGSFLAHTNHALNDQIRADEDAELLARQYPSSQKRLEVLKMREAGCADACEVMDILRDRTNAPDSVCKQTSLREPTQTAFSVVMQCRNRTLFLVRGMPSATEYQRISL
MGSDKIHHHHHHMVNEQRVLDTFLELVQIDSESKEEAQICAHLKETFTALGCDVFEDDASSKTEHKGNNLIITLPATKDGVDKIYFTSHMDTVFPGQGIKPIIEDGYVKTDGTTILGADDKTGLASLIELVHVLNETNQPHGKIQFVITVGEESGLVGAMVLDPSKIDADYGFALDSDGKVGDIITAAPTQAKVNAKIYGKTAHAGVAPEKGISAITIAAKAIAKMPLGRIDEETTANIGRFSGGGPSTNIVCDYVEIFAEARSLVAPKMEAQTAKMKAAFEEVAAEFGGRAEVEVKVMYPGFKFEDGDQVVEVAKAAITQLGRTPRLLHSGGGSDANVIAGFGIPTVNLAVGYEDIHTTNEKMPIEELVKTAELCVTLVDYITNK

Source: the DeepSol protein solubility set
